What was measured:
C57BL/6 DIO mice [1] = assay: Chronic treatment of DIO mice with anti-GIPR 2.63.1 in combination with Liraglutide, Dulaglutide or Exendin IV; type: in vivo, mouse; conditions: 2.63.1 25 mg/kg once a week, Dulaglutide 1 mg/kg twice a week, Liraglutide 0.3 mg/kg once a day, Exendin IV 0.01 mg/kg once a day, i.p.
Procedure: Male C57BL/6 DIO mice were purchased from Jackson laboratory. Mice were singly housed and continued on high fat diet (60 kcal % fat, Research diet) after arrival. […] All treatments were administrated intraperitoneally. Blood samples were collected from tail vein or cardiac puncture at termination. Serum insulin levels were determined by using mouse high range insulin ELISA (ALPCO Diagnostics). The triglyceride levels were measured using an infinity triglyceride assay kit (Thermo Scientific). Total cholesterol was measured using an infinity total cholesterol kit (Thermo Scientific). Body composition was determined using the minispec whole body composition analyzer (Bruker). For oral glucose tolerance test, mice were fasted for 4 h. Glucose levels were measured and blood samples were taken from the tail vein before the OGTT was initiated. A bolus of glucose (2 g/kg) was given orally by a gavage needle. Glucose levels were measured at 15, 30 and 60 min after glucose administration using a glucose meter (Abbott).

[2] = rapid degradation by the DPP-IV enzyme; cited from earlier work
C57BL/6 DIO male mice = assay: Anti-GIPR 2.63.1 treatment in DIO mice pre-treated with Liraglutide (two-phase study); type: in vivo, mouse; conditions: Liraglutide 0.05 or 0.3 mg/kg daily for 2 weeks, then 2.63.1 25 mg/kg weekly added
Excerpt: FIG. 41 provides an overview of the study used to determine the effects of chronic treatment of diet induced obese (DIO) mice pre-treated with Liragutide with the mouse anti-mouse GIPR Ab (2.63.1). C57BL/6 DIO male mice (17 week old) fed Research Diets D12492 (60% kcal fat) for 13 weeks were randomized into groups. During phase 1 (pre-treatment phase), animals were intraperitoneally dosed daily for 2 weeks with either 1) saline (0.9% sodium chloride), 2) Liraglutide (BAChem #H-6724-0005) at 0.05 mg/kg, 3) Liraglutide at 0.3 mg/kg, or 4) Liraglutide 0.3 mg/kg in combination with a weekly dose of mouse anti-mouse GIPR Ab (2.63.1) in vehicle (10 mM acetate, 9% sucrose, pH 5.2) at 25 mg/kg;ll other groups (1-3) received a weekly dose of vehicle. During phase 2 (experimental stage) mouse anti-mouse GIPR Ab (2.63.1) treatment was initiated in the animals pre-treated with Liraglutide. Blood glucose levels were measured from retro orbital sinus using a glucose meter (Abbott) after mice were fasted for 4 hours before phase 1, end of phase 1, and at the end of the experiment. Insulin levels were determined using mouse high range insulin ELISA (ALPCO Diagnostics). […] Plasma was analyzed on the Olympus chemistry analyzer for liver enzymes, cholesterol, triglycerides, and NEFA. Plasma was analyzed in mouse metabolism multiplex assay (MMHMAG-44K—EMD Millipore) for mouse hormones.

[3] = tested on: high fat diet (HFD)-induced obese C57BL/6 mice; assay: Mouse pharmacodynamic assay (IPGTT following exogenous [D-Ala2]-GIP) to test anti-murine GIPR antibody 2.63.1; type: in vivo; conditions: antibody i.p. the day before IPGTT, [D-Ala2]-GIP 50 nmol/kg i.p.
Procedure: FIG. 1 provides an overview of the pharmacodynamics assay to test anti-murine GIPR antibodies. Seven week old male high fat diet (HFD)-induced obese C57BL/6 mice were purchased from Jackson Labs. After arrival, mice were continued on high fat diet with Research Diets D12492 (60 kcal % fat) (Research diet) for one to two weeks. Mice were randomized by body weight and were administrated intraperitoneally with testing GIPR antibody or vehicle (10 mM acetate, 150 mM NaCl, pH 5.0) the day before intraperitoneal glucose tolerance test (IPGTT). Mice were fasted for 7 hours and IPGTT was performed immediately following exogenous GIP [D-Ala2]-GIP (50 nmol/kg, Phoenix Pharmaceuticals) given intraperitoneally. Blood samples were taken from tail nick at the times indicated. Glucose was measured using AlphaTrak blood glucose meter (Abbott). Blood insulin level was determined by using Insulin (mouse) ultra-sensitive EIA kit (ALPCO Diagnostics). […] 2.63.1 comprises a light chain with the following sequence: […]

C57BL/6 DIO mice [4] = assay: Chronic treatment of DIO mice with anti-GIPR 2.63.1 in combination with Liraglutide; type: in vivo, mouse; conditions: 2.63.1 30 mg/kg twice a week, Liraglutide 0.3 mg/kg once a day, i.p.
Procedure: FIG. 24 provides an overview of the study used to determine the effects of chronic treatment of diet induced obese (DIO) mice with the mouse anti-mouse GIPR Ab (2.63.1) in combination with the GLP-1R agonist Liraglutide. Male C57BL/6 DIO mice were purchased from Jackson laboratory. Mice were single housed and continued on high fat diet (60 kcal % fat, Research Diets). Mice at 35 weeks old were randomized into groups and received one of the following treatments: A: vehicle (10 mM acetate, 9% sucrose, pH 5.2, and saline); B: 2.63.1 (30 mg/kg, twice a week); C: Liraglutide (0.3 mg/kg, once a day) and D: 2.63.1 (30 mg/kg, twice a week) and Liraglutide (0.3 mg/kg, once a day). All treatments were administrated intraperitoneally.
Blood samples were collected from tail vein or cardiac puncture at termination. Serum insulin levels were determined by using mouse high range insulin ELISA (ALPCO Diagnostics). Serum leptin levels were measured using mouse and rat leptin ELISA kit from BioVendor. The triglyceride levels were measured using an infinity triglyceride assay kit (Thermo Scientific). Total cholesterol was measured using an infinity total cholesterol kit (Thermo Scientific). At termination, liver, epididymal fat and inguinal fat were isolated and weighed using a balance.
Body composition was determined using the minispec whole body composition analyzer (Bruker).
For the oral glucose tolerance test (OGTT), mice were fasted for 4 hours. Glucose levels were measured and blood samples were taken from the tail vein before the OGTT was initiated. A bolus of glucose (2 g/kg) was given orally by a gavage needle. Glucose levels were measured at 15, 30 and 60 min after glucose administration using a glucose meter (Abbott).

C57BL/6 DIO mice [5] = assay: Chronic treatment of diet induced obese mice with GIPR antibody 2.63.1; type: in vivo, mouse; conditions: twice a week i.p. for 6 weeks
Procedure: FIG. 3 provides an overview of the study used to determine the effects of chronic treatment of diet induced obese (DIO) mice with the 2.63.1 antibody. 18 week old male C57BL/6 DIO mice fed Research Diets D12492 (60 kcal % fat) were randomized into groups. Treatments were given twice a week intraperitoneally for 6 weeks. Blood glucose levels were measured from tail nick using a glucose meter (Abbott) after mice were fasted for 4 hours. Insulin levels were determined using mouse high range insulin ELISA (ALPCO Diagnostics). Triglyceride levels were measured using an Infinity triglyceride assay kit (Thermo Scientific). Total cholesterol was measured using an Infinity total cholesterol kit (Thermo Scientific). Body composition was determined using the minispec whole body composition analyzer (Bruker).
For intraperitoneal glucose tolerance test (IPGTT), mice were fasted for 4 hours. Glucose levels were measured and blood samples were taken from the tail vein before IPGTT was initiated. IPGTT was performed by intraperitoneal injection of glucose (1 g/kg body weight). Glucose levels were measured at 20, 40 and 60 minutes after glucose administration by using a glucose meter (Abbott). FIG. 4.
At termination, liver and epididymal fat was isolated and weighed using a balance. One piece of each tissue was fixed in 10% buffered formalin for 24 hours.

In the case of “Dulaglutide: GLP1R agonist; also known LY2189265, Eli Lilly and Company [reference compound]”, the “effect on fat mass loss of the combination GIPR Ab 2.63.1 with GLP-1R agonist (Liraglutide, Dulaglutide or Exendin IV)” value (C57BL/6 DIO mice [1]) is reported as “synergistic effect” and the “effect on weight loss of the combination GIPR Ab 2.63.1 with GLP-1R agonist (Liraglutide, Dulaglutide or Exendin IV)” value (C57BL/6 DIO mice [1]) is reported as “synergistic effect”.

In the case of “GLP-1: 31-amino acid peptide derived from the proglucagon gene”, the half-life [2] is given as “approximately 2 minutes”.

B1: 2.63.1: anti-murine GIPR antibody; light chain SEQ ID NO: 3161, heavy chain SEQ ID NO: 3162 (antibody)
heavy: MGWSYIILFLVATATDVHSQVQLQQPGAELVKPGASVKLSCRASGYTFTSNWMHWVKQRPRQGLEWIGEINPSNGRSNYNEKFKTKATLTVDKSSSTAYMQLSSLTSEDSAVYYCARFYYGTSWFAYWGQGTLVAVSAAKTTPPSVYPLAPGSAAQTNSMVTLGCLVKGYFPEPVTVTWNSGSLSSGVHTFPAVLQSDLYTLSSSVTVPSSTWPSETVTCNVAHPASSTKVDKKIVPRDCGCKPCICTVPEVSSVFIFPPKPKDVLTITLTPKVTCVVVDISKDDPEVQFSWFVDDVEVHTAQTQPREEQFASTFRSVSELPIMHQDWLNGKEFKCRVNSAAFPAPIEKTISKTKGRPKAPQVYTIPPPKEQMAKDKVSLTCMITDFFPEDITVEWQWNGQPAENYKNTQPIMDTDGSYFVYSKLNVQKSNWEAGNTFTCSVLHEGLHNHHTEKSLSHSPGK
light: MKLPVRLLVLMFWIPASSSDVVMTQTPLSLPVSLGDQASISCRSSQSLVHSNGDTYLHWYLQKPGQSPKLLIYKVSNRFSGVPDRFSGSGSGTDFTLKISRVEAADLGVYFCSQSTHVPPFTFGGGTKLEIKRADAAPTVSIFPPSSEQLTSGGASVVCFLNNFYPKDINVKWKIDGSERQNGVLNSWTDQDSKDSTYSMSSTLTLTKDEYERHNSYTCEATHKTSTSPIVKSFNRNEC
With B1 the “weight loss in animals pre-treated with Liraglutide” value (C57BL/6 DIO male mice) was “weight loss effect of anti-GIPR can be observed in animals already receiving GLP-1R agonist therapy”, the “effect on fat mass loss of the combination GIPR Ab 2.63.1 with GLP-1R agonist (Liraglutide, Dulaglutide or Exendin IV)” value (C57BL/6 DIO mice [1]) was “synergistic effect” and the “effect on weight loss of the combination GIPR Ab 2.63.1 with GLP-1R agonist (Liraglutide, Dulaglutide or Exendin IV)” value (C57BL/6 DIO mice [1]) was “synergistic effect”. For the same molecule, the “GIP induced glucose levels” value ([3]; FIG. 2A) was “Antagonized”, the “GIP induced insulin secretion” value ([3]; FIG. 2B) was “antagonizes GIP induced insulin secretion” and the body weight (C57BL/6 DIO mice [4]) was “prevented weight gain”. For the same molecule, the glucose levels (C57BL/6 DIO mice [4]) was “lowered glucose”, the insulin levels (C57BL/6 DIO mice [4]) was “lowered” and the fasting glucose levels (C57BL/6 DIO mice [5]; 4 hours fast, FIG. 7) was “lower fasting glucose levels”. For the same molecule, the body weight gain (C57BL/6 DIO mice [5]; FIG. 4) was “Reduced Body Weight Gain”, the fat mass (C57BL/6 DIO mice [5]; FIG. 5) was “lower fat mass” and the “epididymal white adipose tissue weights” value (C57BL/6 DIO mice [5]; FIG. 6) was “lower epididymal white adipose tissue weights”. For the same molecule, the insulin levels (C57BL/6 DIO mice [5]; FIG. 8) was “lower insulin levels”, the serum total cholesterol (C57BL/6 DIO mice [5]; FIG. 10A) was “lower serum total cholesterol” and the serum triglycerides (C57BL/6 DIO mice [5]; FIG. 10B) was “Lower”. The “hepatocyte microvesicular change and corresponding lipid accumulation” value (C57BL/6 DIO mice [5]; FIG. 11) was “reduction in hepatocyte microvesicular change and corresponding lipid accumulation”, the liver weight (C57BL/6 DIO mice [5]; FIG. 12A) was “reduced liver weight” and the liver triglyceride content (C57BL/6 DIO mice [5]; FIG. 12B) was “reduced”. For the same molecule, the “inflammation and infiltrating macrophages surrounding adipocytes in epididymal white adipose tissue” value (C57BL/6 DIO mice [5]; FIG. 13) was “reduced inflammation and reduced infiltrating macrophages cells surrounding adipocytes” and the “glucose tolerance (IPGTT)” value (C57BL/6 DIO mice [5]; glucose 1 g/kg i.p., FIG. 9) was “improved glucose tolerance”.
